Reference: publication PMC13391367 (Nature, 2025)
The star is where a group is joined. Biotin = O=C1N[C@H]2[C@H](CS[C@H]2CCCCC(=O)*)N1; fluorescein = fluorescein label

Target: T1, LENG8(283–346) (human, UniProt Q96PV6 283-346)
T1 construct: LENG8, human, residues 283–346 (conserved helical region N-terminal to the SAC3 domain); also called LENG8^283–346 WT; source: recombinant
T1 sequence (looked up): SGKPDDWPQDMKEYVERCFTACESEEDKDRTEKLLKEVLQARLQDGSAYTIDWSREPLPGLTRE
Assay: pull-down; biotinylated, fluorescein-labelled ZFC3H1 peptide (200 µg) on magnetic streptavidin beads; 15 μg LENG8(283–346) or its F301A mutant added, 60 min at 4 °C; 25 mM HEPES pH 7.9, 100 mM NaCl, 5% glycerol, 1 mM MgCl2, 1 mM TCEP, 0.01% Igepal CA-630; glycine pH 2.5 elution; Coomassie and fluorescein imaging
Conditions: both partners purified

B1: Biotin-ZFC3H1^728–752 wild-type peptide, C-terminal fluorescein (peptide, UniProt O60293 728-752, looked up)
peptide: Biotin-NSVFGGLESMIKEARRTAEQASKPK-fluorescein
notes: ZFC3H1, human, residues 728–752; also called ZFC3H1 peptide WT
binding result: binds
